According to US20240400677A1 (ELECTRA THERAPEUTICS, published 2024):

T1: cynomolgus monkey SIRPα on CHO cells (cynomolgus monkey, UniProt A0A2K5VYQ9 31-507)
T1 construct: whole, on cells; also called Cyno SIRPα CHO
T1 sequence: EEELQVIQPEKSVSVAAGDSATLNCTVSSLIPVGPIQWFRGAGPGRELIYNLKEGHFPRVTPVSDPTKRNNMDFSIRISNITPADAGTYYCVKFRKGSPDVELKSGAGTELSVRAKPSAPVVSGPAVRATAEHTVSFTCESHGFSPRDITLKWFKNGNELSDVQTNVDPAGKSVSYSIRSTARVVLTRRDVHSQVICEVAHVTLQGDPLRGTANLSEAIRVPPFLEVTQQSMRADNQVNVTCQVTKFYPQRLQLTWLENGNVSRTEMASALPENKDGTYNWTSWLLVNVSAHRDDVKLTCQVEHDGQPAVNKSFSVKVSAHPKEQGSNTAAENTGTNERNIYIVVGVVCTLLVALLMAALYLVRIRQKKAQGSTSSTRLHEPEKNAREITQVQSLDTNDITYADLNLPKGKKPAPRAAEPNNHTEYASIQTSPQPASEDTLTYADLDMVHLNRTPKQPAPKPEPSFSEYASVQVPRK

T2: cynomolgus monkey SIRPγ on CHO cells (cynomolgus monkey, UniProt Q9P1W8 29-386 (human entry))
T2 construct: also called Cyno SIRPγ CHO
T2 chain: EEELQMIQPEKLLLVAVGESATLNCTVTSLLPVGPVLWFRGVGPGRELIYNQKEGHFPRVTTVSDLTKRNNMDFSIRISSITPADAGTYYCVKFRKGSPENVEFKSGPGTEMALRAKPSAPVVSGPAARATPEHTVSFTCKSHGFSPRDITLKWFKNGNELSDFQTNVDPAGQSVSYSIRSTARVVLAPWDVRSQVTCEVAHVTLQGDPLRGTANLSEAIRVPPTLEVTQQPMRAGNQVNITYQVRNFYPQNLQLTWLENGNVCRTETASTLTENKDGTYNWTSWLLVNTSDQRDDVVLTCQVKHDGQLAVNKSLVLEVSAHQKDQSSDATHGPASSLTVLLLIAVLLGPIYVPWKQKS

T3: cynomolgus monkey SIRPγ-His monomer protein (cynomolgus monkey, UniProt Q9P1W8 29-359 (human entry), limits assumed)
T3 construct: also called Cyno SIRPγ; Cyno SIRPγ-His
T3 chain: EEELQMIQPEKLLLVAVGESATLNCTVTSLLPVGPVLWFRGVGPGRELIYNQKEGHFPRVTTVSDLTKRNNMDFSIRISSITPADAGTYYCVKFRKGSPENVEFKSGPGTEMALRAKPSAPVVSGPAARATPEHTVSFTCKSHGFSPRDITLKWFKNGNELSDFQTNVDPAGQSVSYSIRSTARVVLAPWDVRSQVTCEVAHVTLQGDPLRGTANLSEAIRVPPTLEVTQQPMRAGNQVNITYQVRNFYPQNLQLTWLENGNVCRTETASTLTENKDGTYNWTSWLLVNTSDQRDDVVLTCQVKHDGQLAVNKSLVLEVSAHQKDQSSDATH


Key:
[1] = molecular target: T1, cynomolgus monkey SIRPα on CHO cells; experiment: flow cytometry
[2] = molecular target: T4, human SIRPβ1 on CHO cells (co-transfected with DAP12) (human, UniProt O00241 30-398); experiment: flow cytometry
T4 construct: whole, on cells; co-transfected with DAP12; also called Human SIRPβ1 CHO

[3] = molecular target: T5, human SIRPγ-His monomer protein (human, UniProt Q9P1W8 29-360); experiment: BLI Octet, V5-scFv PPE captured, SIRP-His 500 nM
T5 construct: also called hSIRPγ

[4] = molecular target: T2, cynomolgus monkey SIRPγ on CHO cells; experiment: flow cytometry, myc-scFv PPE
How it was run: (§1)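 Antibodies are titrated onto CHO cells stably expressing the SIRP protein, then detected with fluorescent anti-human IgG. MFI is plotted against concentration. Crude PPE containing myc-tagged scFv is tested against the same lines and parental CHO-K1, with fold change <2.0 taken as non-binding.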

[5] = molecular target: T6, human SIRPγ on stably transfected CHO cells (human, UniProt Q9P1W8 29-387); experiment: flow cytometry, myc-scFv PPE
T6 construct: also called Human SIRPγ CHO
How it was run: as §1

[6] = molecular target: T3, cynomolgus monkey SIRPγ-His monomer …; experiment: BLI Octet, captured scFv PPE, cyno SIRP
Experimental: Unique binders were further tested for binding to human SIRPαV1, human SIRPαV2, and human SIRPβ1. Briefly, biotinylated anti-V5 was immobilized onto streptavidin biosensors. Each V5-tagged SIRPγ scFv antibody as crude PPE was captured by the anti-V5 antibody. SIRP-His monomer protein at 500 nM was exposed to the biosensor for binding to SIRP scFv. The biosensors were then exposed to wash buffer to measure off-rate kinetics. The resulting association and dissociation kinetics (kdis) was analyzed. […] Similarly, cross-reactivity to cynomolgus monkey SIRPγ, cynomolgus monkey SIRPα, and cynomolgus monkey SIRPβ1 were tested.

T6 sequence (Q9P1W8 29-387 limits assumed): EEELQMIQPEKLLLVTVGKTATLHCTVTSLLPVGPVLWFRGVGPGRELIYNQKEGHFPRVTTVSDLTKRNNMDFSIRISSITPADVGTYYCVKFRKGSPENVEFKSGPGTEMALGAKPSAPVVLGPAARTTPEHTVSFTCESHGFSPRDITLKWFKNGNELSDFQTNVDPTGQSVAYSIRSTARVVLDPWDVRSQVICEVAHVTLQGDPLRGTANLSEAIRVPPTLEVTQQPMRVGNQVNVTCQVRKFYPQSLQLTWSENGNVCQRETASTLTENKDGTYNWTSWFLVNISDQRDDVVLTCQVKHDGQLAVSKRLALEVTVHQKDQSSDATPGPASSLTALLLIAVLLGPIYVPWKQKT
T5 sequence (Q9P1W8 29-360 limits assumed): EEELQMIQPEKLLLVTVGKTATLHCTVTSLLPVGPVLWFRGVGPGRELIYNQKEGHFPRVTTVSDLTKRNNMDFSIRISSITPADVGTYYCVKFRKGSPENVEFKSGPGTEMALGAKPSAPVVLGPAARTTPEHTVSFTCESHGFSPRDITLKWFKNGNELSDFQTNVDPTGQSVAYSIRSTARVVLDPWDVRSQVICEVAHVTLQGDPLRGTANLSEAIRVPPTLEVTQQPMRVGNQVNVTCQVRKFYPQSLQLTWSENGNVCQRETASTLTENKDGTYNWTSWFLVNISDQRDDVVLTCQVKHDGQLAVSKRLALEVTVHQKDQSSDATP
T4 sequence (O00241 30-398): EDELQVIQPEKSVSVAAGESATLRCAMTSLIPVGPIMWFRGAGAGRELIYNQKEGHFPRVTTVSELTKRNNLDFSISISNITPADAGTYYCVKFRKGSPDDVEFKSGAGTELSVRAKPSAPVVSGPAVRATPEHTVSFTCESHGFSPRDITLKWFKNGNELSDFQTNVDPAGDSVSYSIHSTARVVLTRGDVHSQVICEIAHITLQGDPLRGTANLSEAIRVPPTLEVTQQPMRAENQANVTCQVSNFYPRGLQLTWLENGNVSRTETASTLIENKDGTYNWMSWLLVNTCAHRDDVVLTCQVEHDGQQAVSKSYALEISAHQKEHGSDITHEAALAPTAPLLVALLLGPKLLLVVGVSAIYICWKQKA

| Binder | binding result [1] | binding result [2] | kdis [3] | MFI fold change over parental CHO [4] | MFI fold change over parental CHO [5] | binding result [6] |
| --- | --- | --- | --- | --- | --- | --- |
| Antibody 13 (scFv, V domains shown, scFv in crude PPE, V5/myc-tagged) VH: EVQLLESGGGLVQPGGSLRLSCAASGFTFSNSDMNWVRQAPGKGLEWVSYISSSGNTIYYADSVKGRFTISRDNSKNTLYLQMNSLRAEDTAVYYCARSNWNYPLDYYYMDVWGKGTTVTVSS VL: DIVMTQSPLSLPVTPGEPASISCRSSQSLLHSNGYNYLDWYLQKPGQSPQLLIYAASSLQSGVPDRFSGSGSGTDFTLKISRVEAEDVGVYYCMQGTHWPPTFGQGTKVEIK | no binding (tested: fold change <2.0) | no binding (tested: fold change <2.0) | 0.001 to 0.01 s⁻¹ | 5.22 fold | 7.06 fold | binds |
| Antibody 40 (scFv, V domains shown, scFv in crude PPE, V5/myc-tagged) VH: QVQLVQSGAEVKKPGSSVKVSCKASGGTFSSYAISWVRQAPGQGLEWVGRIHPRDGSTDYAQKFQGRVTITADESTSTAYMELSSLRSEDTAVYYCARVSLRFLEDYGMDVWGQGTTVTVSS VL: not shown | no binding (tested: fold change <2.0) | no binding (tested: fold change <2.0) | 0.001 to 0.01 s⁻¹ | 15.3 fold | 15.4 fold | binds |
| Antibody 41 (scFv, V domains shown, scFv in crude PPE, V5/myc-tagged) VH: QVQLVQSGAEVKKPGSSVKVSCKASGGTFSNYAISWVRQAPGQGLEWMGGIIPIFGSTASYAQKFQGRVTITADESTSTAYMELSSLRSEDTAVYYCARGVGDDTLTDWGQGTLVTVSS VL: DIVMTQSPLSLPVTPGEPASISCRSSQSLLHSNGYNYLDWYLQKPGQSPQLLIYAASSLQSGVPDRFSGSGSGTDFTLKISRVEAEDVGVYYCMQALQTPLTFGGGTKVEIK | no binding (tested: fold change <2.0) | no binding (tested: fold change <2.0) | > 0.01 s⁻¹ | 36.1 fold | 25.5 fold | binds |
| Antibody 42 (scFv, V domains shown, scFv in crude PPE, V5/myc-tagged) VH: QVQLVQSGAEVKKPGASVKVSCKASGYTFTSYHMHWVRQAPGQGLEWMGWMNPNSGNTGYAQKFQGRVTMTRDTSTSTVYMELSSLRSEDTAVYYCARGGRVVRGVIKGWFDPWGQGTLVTVSS VL: not shown | no binding (tested: fold change <2.0) | no binding (tested: fold change <2.0) | > 0.01 s⁻¹ | 14.5 fold | 15.9 fold | binds |
| Antibody 43 (scFv, V domains shown, scFv in crude PPE, V5/myc-tagged) VH: QVQLVQSGAEVKKPGASVKVSCKASGGTFTSYDINWVRQAPGQGLEWMGWISAYNGHTNYAQNLQGRVTMTRDTSTSTVYMELSSLRSEDTAVYYCAREDSSWYFDLWGRGTLVTVSS VL: DIQMTQSPSSLSASVGDRVTITCRASQSISSWLAWYQQKPGKAPKLLIYDASNLETGVPSRFSGSGSGTDFTLTISSLQPEDFATYYCQQSFSTPPTFGQGTKVEIK | no binding (tested: fold change <2.0) | no binding (tested: fold change <2.0) |  | 22.7 fold | 41.2 fold | binds |
| Antibody 47 (scFv, V domains shown, scFv in crude PPE, V5/myc-tagged) VH: QVQLVQSGAEVKKPGASVKVSCKASGYTFTTYGISWVRQAPGQGLEWMGWMDPNSGSTGYAQKFQGRVTMTRDTSTSTVYMELSSLRSEDTAVYYCARGRGNSYYYYYMDVWGKGTTVTVSS VL: DIQMTQSPSSLSASVGDRVTITCRASQRIGSYLNWYQQKPGKAPKLLIYGASNLQSGVPSRFSGSGSGTDFTLTISSLQPEDFATYYCQQANSFPFTFGPGTKVDIK | no binding (tested: fold change <2.0) | no binding (tested: fold change <2.0) | > 0.01 s⁻¹ | 14.2 fold | 17.3 fold | binds |
| Antibody 49 (scFv, V domains shown, scFv in crude PPE, V5/myc-tagged) VH: QVQLVQSGAEVKKPGSSVKVSCKASGGTFSSYAISWVRQAPGQGLEWMGVINPSGGSTSYAQKFQGRVTITADESTSTAYMELSSLRSEDTAVYYCARESRGYYGMDVWGQGTTVTVSS VL: not shown | no binding (tested: fold change <2.0) | no binding (tested: fold change <2.0) | > 0.01 s⁻¹ | 18.3 fold | 18.6 fold | binds |
| Antibody 50 (scFv, V domains shown, scFv in crude PPE, V5/myc-tagged) VH: QVQLVQSGAEVKKPGASVKVSCKASGYTFTGYYMHWVRQAPGQGLEWMGTINPSGGSTSYAQKFQGRVTMTRDTSTSTVYMELSSLRSEDTAVYYCVKGNGYYDLWGQGTLVTVSS VL: DIQMTQSPSSLSASVGDRVTITCRASQSISSWLAWYQQKPGKAPKLLIYDTSNLQGGVPSRFSGSGSGTDFTLTISSLQPEDFATYYCQQYDSFPWTFGQGTKVEIK | no binding (tested: fold change <2.0) | no binding (tested: fold change <2.0) | > 0.01 s⁻¹ | 30.8 fold | 12.8 fold | binds |
| Antibody 17 (scFv, V domains shown, scFv in crude PPE, V5/myc-tagged) VH: QVQLVQSGAEVKKPGASVKVSCKASGYTFTRNYVHWVRQAPGQGLEWMGRINPNSGGTNTAQKFQGRVTMTRDTSTSTVYMELSSLRSEDTAVYYCARLGDVAVAASFDYWGQGTLVTVSS VL: DIQMTQSPSSLSASVGDRVTITCRASQSISSYLNWYQQKPGKAPKLLIYDASSLESGVPSRFSGSGSGTDFTLTISSLQPEDFATYYCQQANSFPLTFGPGTKVDIK | no binding (tested: fold change <2.0) |  |  | 30.1 fold | 28.3 fold | binds |
| Antibody 26 (scFv, V domains shown, scFv in crude PPE, V5/myc-tagged) VH: QVQLVQSGAEVKKPGASVKVSCKASGYTFTSYYMHWVRQAPGQGLEWMGRINPNSGGTKYAQKFQGRVTMTRDTSTSTVYMELSSLRSEDTAVYYCARLGSAYFDLWGRGTLVTVSS VL: DIQMTQSPSSLSASVGDRVTITCRASQSVDTWLAWYQQKPGKAPKLLIYEASTLESGVPSRFSGSGSGTDFTLTISSLQPEDFATYYCQQANSFPITFGQGTRLEIK | no binding (tested: fold change <2.0) |  | 0.001 to 0.01 s⁻¹ | 40 fold | 28.4 fold | binds |
| Antibody 37 (scFv, V domains shown, scFv in crude PPE, V5/myc-tagged) VH: QVQLVQSGAEVKKPGASVKVSCKASGYTLNNYDINWVRQAPGQGLEWMGWISGYNGNTNYAQKLQGRVTMTRDTSTSTVYMELSSLRSEDTAVYYCARVGSSWEENDQWGQGTLVTVSS VL: DIQMTQSPSSLSASVGDRVTITCRASQSISRWLAWYQQKPGKAPKLLIYAASSLESGVPSRFSGSGSGTDFTLTISSLQPEDFATYYCQQTHSFPLTFGGGTKVEIK |  | no binding (tested: fold change <2.0) | 0.001 to 0.01 s⁻¹ | 15.5 fold | 31.1 fold | binds |
